This note sets out measurements from PMC10250397.

The target in the test is SERCA2-mTurquoise2 (UniProt P16615). The experiment in a line: FRET or BRET; three channel sensitized emission FRET on living HEK293-T cells, SERCA2-mTurquoise2 donor and GSK3β-sYFP2 acceptor, confocal microscope; normoxia or 60 min hypoxia followed by 30 min reoxygenation.
UniProt P16615, sequence (P16615 whole entry): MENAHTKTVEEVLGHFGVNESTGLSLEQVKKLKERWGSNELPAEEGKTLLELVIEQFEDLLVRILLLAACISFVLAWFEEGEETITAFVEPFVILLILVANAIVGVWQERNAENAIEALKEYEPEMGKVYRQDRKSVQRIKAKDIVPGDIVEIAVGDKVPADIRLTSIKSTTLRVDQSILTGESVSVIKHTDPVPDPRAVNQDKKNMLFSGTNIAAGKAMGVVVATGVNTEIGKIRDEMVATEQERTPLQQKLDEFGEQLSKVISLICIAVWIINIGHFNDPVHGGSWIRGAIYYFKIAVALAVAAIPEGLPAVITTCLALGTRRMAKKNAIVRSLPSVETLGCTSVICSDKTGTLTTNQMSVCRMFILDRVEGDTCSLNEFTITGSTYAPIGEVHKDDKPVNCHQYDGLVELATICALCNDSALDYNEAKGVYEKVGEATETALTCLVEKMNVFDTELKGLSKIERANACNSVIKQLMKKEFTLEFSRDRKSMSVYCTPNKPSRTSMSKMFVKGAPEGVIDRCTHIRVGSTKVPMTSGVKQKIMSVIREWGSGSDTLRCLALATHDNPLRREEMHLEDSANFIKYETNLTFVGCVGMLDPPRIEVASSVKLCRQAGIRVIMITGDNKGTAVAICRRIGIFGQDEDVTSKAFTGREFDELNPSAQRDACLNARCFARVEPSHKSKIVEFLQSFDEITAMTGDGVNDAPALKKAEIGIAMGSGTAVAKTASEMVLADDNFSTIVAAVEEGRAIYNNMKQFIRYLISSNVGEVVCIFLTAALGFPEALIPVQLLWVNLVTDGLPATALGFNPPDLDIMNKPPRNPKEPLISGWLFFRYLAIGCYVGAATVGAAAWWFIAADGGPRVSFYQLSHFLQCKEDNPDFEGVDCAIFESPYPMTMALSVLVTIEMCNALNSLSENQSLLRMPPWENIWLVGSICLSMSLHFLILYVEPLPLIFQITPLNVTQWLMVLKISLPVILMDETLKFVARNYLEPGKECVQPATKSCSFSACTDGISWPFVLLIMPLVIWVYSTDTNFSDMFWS

GSK3β-sYFP2, sequence (P49841 whole entry): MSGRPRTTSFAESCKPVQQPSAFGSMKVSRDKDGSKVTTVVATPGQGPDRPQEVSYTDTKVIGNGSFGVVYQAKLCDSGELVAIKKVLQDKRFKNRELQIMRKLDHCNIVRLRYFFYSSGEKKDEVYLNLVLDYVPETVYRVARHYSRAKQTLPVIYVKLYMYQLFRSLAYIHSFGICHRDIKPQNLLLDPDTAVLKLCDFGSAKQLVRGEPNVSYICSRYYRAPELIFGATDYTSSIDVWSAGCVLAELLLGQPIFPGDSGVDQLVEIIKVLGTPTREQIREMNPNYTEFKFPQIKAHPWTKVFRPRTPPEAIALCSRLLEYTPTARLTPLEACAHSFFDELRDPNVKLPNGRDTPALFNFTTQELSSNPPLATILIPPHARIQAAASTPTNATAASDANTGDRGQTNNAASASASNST

“GSK3β-sYFP2 (from UniProt P49841 1-420) (enzyme)”: the fold change of FRET efficiency after H/R against normoxia came out at 3 fold. Turning to “GSK3β-sYFP2 (from UniProt P49841 1-420) (living HEK293-T cells)”, the FRET efficiency worked out at 3.11%.
